In publication PMC8951179:

Legend:
[1] = biological target: GST-Ku70_1–250_S69A (human) (UniProt P12956); experiment: pull-down; GST pull-down: 100 nM GST-Ku70 variant as bait on glutathione-agarose, 100 or 200 nM His6-IN; buffer A (20 mM Hepes pH 7.5, 100 mM NaCl, 7.5 mM MgCl2, 2 mM 2-mercaptoethanol, 50 µg/mL BSA, 0.1% NP40), room temperature; Western blot
[2] = biological target: GST-Ku70_1–250_Q65A/Q68A (human) (UniProt P12956); experiment: as above

Substance: HIV-1 integrase carrying N-terminal His6-tag (natural protein)
- IN binding activity, % of the wild-type protein [1]: 55 to 73%
- reduction in the protein binding efficiency (control Ku70 1–250) [2]: 10 to 15%
